# In the supplement of paper PMC10567573:
# B1: BCL2L13 (parent)
# chain: MASSSTVPLGFHYETKYVVLSYLG
# Variants of: B1
# Assay: protein stability index of a GFP-peptide fusion (GPS, HEK-293T) (PSI 1-6); higher = more stable
# Conditions: c terminus: a fixed tail appended
# 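Further: lentivirally expressed fusions sorted by FACS into six bins by GFP to DsRed ratio, PSI derived from sequencing read proportions per bin multiplied by bin number.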
row,Variant,protein stability index
1,MASSSTVPLGFHYETKYVVQSYLG [L20Q],2.19
2,MASSSTVPLGFHYETKYVVISYLG [L20I],1.71
3,MASSSTVPLGFHYETKYVVPSYLG [L20P],1.7
4,MASSSTVPLGFHYETKYVVYSYLG [L20Y],2.88
5,MASSSTVPLGFHYETKYVVKSYLG [L20K],2.52
6,MASSSTVPLGFHYETKYVVSSYLG [L20S],1.69
7,MASSSTVPLGFHYETKYVVHSYLG [L20H],2.01
8,MASSSTVPLGFHYETKYVVCSYLG [L20C],2.58
9,MASSSTVPLGFHYETKYVVGSYLG [L20G],1.74
10,MASSSTVPLGFHYETKYVVRSYLG [L20R],1.48
11,MASSSTVPLGFHYETKYVVDSYLG [L20D],2.18
12,MASSSTVPLGFHYETKYVVWSYLG [L20W],2.22
13,MASSSTVPLGFHYETKYVVESYLG [L20E],1.78
14,MASSSTVPLGFHYETKYVVVSYLG [L20V],2.82
15,MASSSTVPLGFHYETKYVVFSYLG [L20F],3.51
16,MASSSTVPLGFHYETKYVVASYLG [L20A],2.12
17,MASSSTVPLGFHYETKYVVNSYLG [L20N],1.65
18,MASSSTVPLGFHYETKYVVMSYLG [L20M],2.37
19,MASSSTVPLGFHYETKYVVTSYLG [L20T],2.17
20,MASSSTVPLGFHYETKYVSLSYLG [V19S],2.19
21,MASSSTVPLGFHYETKYVQLSYLG [V19Q],1.71
22,MASSSTVPLGFHYETKYVILSYLG [V19I],3.19
23,MASSSTVPLGFHYETKYVELSYLG [V19E],1.7
24,MASSSTVPLGFHYETKYVFLSYLG [V19F],1.5

row,Variant,protein stability index
1,MASSSTVPLGFHYETKYVNLSYLG [V19N],1.94
2,MASSSTVPLGFHYETKYVYLSYLG [V19Y],2.63
3,MASSSTVPLGFHYETKYVLLSYLG [V19L],2.29
4,MASSSTVPLGFHYETKYVKLSYLG [V19K],1.34
5,MASSSTVPLGFHYETKYVGLSYLG [V19G],2.09
6,MASSSTVPLGFHYETKYVRLSYLG [V19R],1.41
7,MASSSTVPLGFHYETKYVHLSYLG [V19H],1.73
8,MASSSTVPLGFHYETKYVTLSYLG [V19T],3.32
9,MASSSTVPLGFHYETKYVCLSYLG [V19C],2.34
10,MASSSTVPLGFHYETKYVDLSYLG [V19D],1.45
11,MASSSTVPLGFHYETKYVPLSYLG [V19P],2.2
12,MASSSTVPLGFHYETKYVWLSYLG [V19W],1.91
13,MASSSTVPLGFHYETKYVMLSYLG [V19M],3.27
14,MASSSTVPLGFHYETKYVVLSYLH [G24H],2.42
15,MASSSTVPLGFHYETKYVVLSYLF [G24F],3.97
16,MASSSTVPLGFHYETKYVVLSYLQ [G24Q],2.62
17,MASSSTVPLGFHYETKYVVLSYLL [G24L],2.98
18,MASSSTVPLGFHYETKYVVLSYLW [G24W],3.89
19,MASSSTVPLGFHYETKYVVLSYLC [G24C],2.21
20,MASSSTVPLGFHYETKYVVLSYLT [G24T],2.13
21,MASSSTVPLGFHYETKYVVLSYLM [G24M],1.84
22,MASSSTVPLGFHYETKYVVLSYLK [G24K],1.45
23,MASSSTVPLGFHYETKYVVLSYLE [G24E],2.05
24,MASSSTVPLGFHYETKYVVLSYLR [G24R],2.06

row,Variant,protein stability index
1,MASSSTVPLGFHYETKYVVLSYLA [G24A],2.8
2,MASSSTVPLGFHYETKYVVLSYLD [G24D],2.38
3,MASSSTVPLGFHYETKYVVLSYLY [G24Y],1.89
4,MASSSTVPLGFHYETKYVVLSYLS [G24S],1.97
5,MASSSTVPLGFHYETKYVVLSYLN [G24N],2.1
6,MASSSTVPLGFHYETKYVVLSYLP [G24P],2.71
7,MASSSTVPLGFHYETKYVVLSYLI [G24I],1.75
8,MASSSTVPLGFHYETKYVVLSYLV [G24V],3.35
9,MASSSTVPLGFHYETKYVVLDYLG [S21D],2.24
10,MASSSTVPLGFHYETKYVVLWYLG [S21W],3.36
11,MASSSTVPLGFHYETKYVVLHYLG [S21H],2.27
12,MASSSTVPLGFHYETKYVVLFYLG [S21F],3.84
13,MASSSTVPLGFHYETKYVVLLYLG [S21L],3.41
14,MASSSTVPLGFHYETKYVVLCYLG [S21C],3.12
15,MASSSTVPLGFHYETKYVVLEYLG [S21E],1.24
16,MASSSTVPLGFHYETKYVVLPYLG [S21P],2.35
17,MASSSTVPLGFHYETKYVVLTYLG [S21T],2.72
18,MASSSTVPLGFHYETKYVVLAYLG [S21A],3.51
19,MASSSTVPLGFHYETKYVVLKYLG [S21K],1.45
20,MASSSTVPLGFHYETKYVVLRYLG [S21R],3.78
21,MASSSTVPLGFHYETKYVVLNYLG [S21N],2.4
22,MASSSTVPLGFHYETKYVVLQYLG [S21Q],3.52
23,MASSSTVPLGFHYETKYVVLYYLG [S21Y],2.51
24,MASSSTVPLGFHYETKYVVLIYLG [S21I],2.36

row,Variant,protein stability index
1,MASSSTVPLGFHYETKYVVLGYLG [S21G],1.62
2,MASSSTVPLGFHYETKYVVLSYTG [L23T],1.44
3,MASSSTVPLGFHYETKYVVLSYWG [L23W],2.76
4,MASSSTVPLGFHYETKYVVLSYGG [L23G],1.71
5,MASSSTVPLGFHYETKYVVLSYCG [L23C],2.09
6,MASSSTVPLGFHYETKYVVLSYMG [L23M],3.69
7,MASSSTVPLGFHYETKYVVLSYFG [L23F],2.12
8,MASSSTVPLGFHYETKYVVLSYNG [L23N],2.18
9,MASSSTVPLGFHYETKYVVLSYRG [L23R],2.21
10,MASSSTVPLGFHYETKYVVLSYKG [L23K],2.3
11,MASSSTVPLGFHYETKYVVLSYIG [L23I],2.11
12,MASSSTVPLGFHYETKYVVLSYSG [L23S],2.34
13,MASSSTVPLGFHYETKYVVLSYEG [L23E],1.65
14,MASSSTVPLGFHYETKYVVLSYPG [L23P],1.71
15,MASSSTVPLGFHYETKYVVLSYHG [L23H],2.59
16,MASSSTVPLGFHYETKYVVLSYDG [L23D],1.63
17,MASSSTVPLGFHYETKYVVLSYVG [L23V],1.93
18,MASSSTVPLGFHYETKYVVLSYYG [L23Y],2.46
19,MASSSTVPLGFHYETKYVVLSYQG [L23Q],1.48
20,MASSSTVPLGFHYETKYVVLSLLG [Y22L],3.28
21,MASSSTVPLGFHYETKYVVLSTLG [Y22T],2.81
22,MASSSTVPLGFHYETKYVVLSALG [Y22A],1.89
23,MASSSTVPLGFHYETKYVVLSELG [Y22E],1.85
